Values belong to the binder of their own block, whether it stands above or below them.
Tests used:
[1] = molecular target: TCR of the MBP-69-89 specific short-term rat T-cell line (rat); test: cell-based or functional assay
[2] = molecular target: rat BV8S2 TCR of the A1 T-cell hybridoma (C14/BW12-12A1), specific for Gp-BP-72-89 (rat); test: flow cytometry on A1 hybridoma
[3] = molecular target: rat BV8S2 TCR of the A1 T-cell hybridoma (C14/BW12-12A1), specific for Gp-BP-72-89 (rat); test: flow cytometry on A1 hybridoma, 10 µM complex, 17 h at 4 C, detection with OX6-PE
[4] = molecular target: rat BV8S2 TCR of the A1 T-cell hybridoma (C14/BW12-12A1), specific for Gp-BP-72-89 (rat); test: flow cytometry on A1 hybridoma with directly A488-labelled complex, 3 h at 4 C
[5] = molecular target: TCR of the cardiac myosin CM-2-specific cell line (rat); test: flow cytometry on CM-2 cell line (blocked with unconjugated OX6), 10 µM complex, detection with OX6-PE

inhibition of proliferation ([3H]thymidine) of MBP-69-89 specific T-cell line after pre-treatment with 10 nM complex [1]: > 90%
fold increase in MFI over background [2]: 10 fold
mean fluorescence intensity (MFI) [3]: 800 Units
B1: β1α1/MBP-69-89 complex (rat RT1.B β1α1 construct loaded with MBP-69-89 peptide) (peptide-MHC)
chain: MGRDSPRDFVYQFKGLCYYTNGTQRIRDVIRYIYNQEEYLRYDSDVGEYRALTELGRPSAEYFNKQYLEQTRAELDTVCRHNYEGSEVRTSLRRLGGQDDIEADHVAAYGINIYQYYESRGQFTHEFDGDEEFYVDLDKKETIWRIPEFGQLTSFDPQGGLQNIAIIKHNLEILMKRSNSTQAVN
peptide: GSLPQKSQRSQDENPVVHF

inhibition of proliferation ([3H]thymidine) of MBP-69-89 specific T-cell line after pre-incubation with 20 µM complex [1]: 27%
B2: β1α1/MBP-55-69 complex (rat RT1.B β1α1 loaded with Gp-MBP-55-69 peptide) (peptide-MHC)
chain: MGRDSPRDFVYQFKGLCYYTNGTQRIRDVIRYIYNQEEYLRYDSDVGEYRALTELGRPSAEYFNKQYLEQTRAELDTVCRHNYEGSEVRTSLRRLGGQDDIEADHVAAYGINIYQYYESRGQFTHEFDGDEEFYVDLDKKETIWRIPEFGQLTSFDPQGGLQNIAIIKHNLEILMKRSNSTQAVN
peptide: SGKDSHHAARTTHYG

MCI [4]: 300 Units
B3: A488-conjugated β1α1 loaded with MBP-69-89 (peptide-MHC)
chain: MGRDSPRDFVYQFKGLCYYTNGTQRIRDVIRYIYNQEEYLRYDSDVGEYRALTELGRPSAEYFNKQYLEQTRAELDTVCRHNYEGSEVRTSLRRLGGQDDIEADHVAAYGINIYQYYESRGQFTHEFDGDEEFYVDLDKKETIWRIPEFGQLTSFDPQGGLQNIAIIKHNLEILMKRSNSTQAVN
peptide: GSLPQKSQRSQDENPVVHF
modifications: Alexa-488 dye conjugated (molar ratio dye/protein=1), site not stated

mean fluorescence intensity (MFI) [5]: 1800 Units
B4: β1α1/CM-2 complex (rat RT1.B β1α1 construct loaded with cardiac myosin peptide CM-2) (peptide-MHC)
chain: MGRDSPRDFVYQFKGLCYYTNGTQRIRDVIRYIYNQEEYLRYDSDVGEYRALTELGRPSAEYFNKQYLEQTRAELDTVCRHNYEGSEVRTSLRRLGGQDDIEADHVAAYGINIYQYYESRGQFTHEFDGDEEFYVDLDKKETIWRIPEFGQLTSFDPQGGLQNIAIIKHNLEILMKRSNSTQAVN
peptide: KLELQSALEEAEASLEH

From patent publication US20090280135A1
